Assay results from article PMC5675868.

How the values were obtained:
[1] = biological target: T1, Aux2LS20-His6 (p57) (Bacillus subtilis plasmid pLS20cat) (UniProt E9RJ22); assay: EMSA; conditions: EMSA: 20 mM Tris-HCl pH 8, 1 mM EDTA, 5 mM MgCl2, 0.5 mM DTT, 100 mM KCl, 10% glycerol, 0.05 mg/ml BSA; 20 min 30°C then 10 min on ice; 2% agarose, 0.5x TBE …
T1 sequence: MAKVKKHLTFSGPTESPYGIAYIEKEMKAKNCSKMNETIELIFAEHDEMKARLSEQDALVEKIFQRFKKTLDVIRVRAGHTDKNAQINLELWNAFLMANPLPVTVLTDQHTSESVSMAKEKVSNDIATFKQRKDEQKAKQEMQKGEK

[2] = test system: T2, Aux1LS20-His6 (p56) (Bacillus subtilis plasmid pLS20cat), ORF:1a040432; assay: EMSA; conditions: EMSA: 20 mM Tris-HCl pH 8, 1 mM EDTA, 5 mM MgCl2, 0.5 mM DTT, 100 mM KCl, 10% glycerol, 0.05 mg/ml BSA; 20 min 30°C then 10 min on ice; 2% agarose, 0.5x TBE …
T2 sequence: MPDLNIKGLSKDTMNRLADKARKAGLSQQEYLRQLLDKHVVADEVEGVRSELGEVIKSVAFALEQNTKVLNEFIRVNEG

[3] = biological target: Aux2_(LS20) with a C-terminal His(6) tag (Bacillus subtilis (plasmid pLS20cat)); assay: AUC; sedimentation equilibrium of the purified protein alone at 12 uM, best fit to a single species model; conditions as in Ramachandran et al., 2017
[4] = biological target: Aux2_(LS20) with a C-terminal His(6) tag (Bacillus subtilis (plasmid pLS20cat)); assay: AUC + other: dynamic light scattering; sedimentation velocity of the purified protein alone at 12 uM; diffusion coefficient from DLS combined with the S-value in the Svedberg equation; conditions as in Ramachandran et al., 2017
[5] = biological target: Aux1_(LS20) with a C-terminal His(6) tag (Bacillus subtilis (plasmid pLS20cat)); assay: AUC; sedimentation equilibrium of the purified protein alone at 12 uM, best fit to a single species model; conditions as in Ramachandran et al., 2017
[6] = biological target: Aux1_(LS20) with a C-terminal His(6) tag (Bacillus subtilis (plasmid pLS20cat)); assay: AUC + other: dynamic light scattering; sedimentation velocity of the purified protein alone at 12 uM; diffusion coefficient from DLS combined with the S-value in the Svedberg equation; conditions as in Ramachandran et al., 2017

Row | Substance | binding [1] | binding [2] | other results
1 | CATCGATTTCTGCACATTACTTTGCAACGATCTGTTCAAATAAGTGTTTCTTTTTCCAAGGCTTTTTGCGGCAGCAAAAAGCCGGCCCCCGATTCCGAAGGAAGGAGGGGGTGGAAAAGGAAAGAGCATAAGGGGAAACTGGCACCATTTGCATGGTGAAACCGCAGTGCGGTTTGTTTTTTCGTGGTACCAGATTTATTG (double strand) [F29] | no binding | binds | –
2 | CGAAGACTAAATTTCTGTATGGAAAACAGTTATTTTTCGTGTGCATAAAATAAAGATTTATGTGCATTTAGTTCTAAATCACCTAAATAATGGTTGAACATAAATGTTTTTTTTATGTGCATTCAGCAATAAATCTGGTACCACGAAAAAACAAACCGCACTGCGGTTTCACCATGCAAATGGTGCCAGTTTCCCCTTAT (double strand) [F24] | binds | binds | –
3 | AAATCACCTAAATAATGGTTGAACATAAATGTTTTTTTTATGTGCATTCAGCAATAAATCTGGTACCACGAAAAAACAAACCGCACTGCGGTTTCACCATGCAAATGGTGCCAGTTTCCCCTTATGCTCTTTCCTTTTCCACCCCCTCCTTCCTTCGGAATCGGGGGCCGGCTTTTTGCTGCCGCAAAAAGCCTTGGAAA (double strand) [F27] | binds more weakly | binds | –
4 | TAAATGTTTTTTTTATGTGCATTCAGCAATAAATCTGGTACCACGAAAAAACAAACCGCACTGCGGTTTCACCATGCAAATGGTGCCAGTTTCCCCTTATGCTCTTTCCTTTTCCACCCCCTCCTTCCTTCGGAATCGGGGGCCGGCTTTTTGCTGCCGCAAAAAGCCTTGGAAAAAGAAACACTTATTTGAACAGATCG (double strand) [F28] | binds more weakly | binds | –
5 | Aux2_(LS20) with a C-terminal His(6) tag (natural protein) | – | – | stoichiometry N [3]: 6; stoichiometry N [4]: 6
6 | CGGCATTTGTTAACGCTCCTTTTCATCGATTTCTGCACATTACTTTGCAACGATCTGTTCAAATAAGTGTTTCTTTTTCCAAGGCTTTTTGCGGCAGCAAAAAGCCGGCCCCCGATTCCGAAGGAAGGAGGGGGTGGAAAAGGAAAGAGCATAAGGGGAAACTGGCACCATTTGCATGGTGAAACCGCAGTGCGGTTTGT (double strand) [F30] | no binding | – | –
7 | TGAGAAAGTCCTGCCTTCCTCGCTTTATCCGCAAGCCTATTCATTGTATCTTTTGAAAGACCTTTGATGTTGAGATCCGGCATTTGTTAACGCTCCTTTTCATCGATTTCTGCACATTACTTTGCAACGATCTGTTCAAATAAGTGTTTCTTTTTCCAAGGCTTTTTGCGGCAGCAAAAAGCCGGCCCCCGATTCCGAAGG (double strand) [F33] | no binding | – | –
8 | ACGAGCAAAGAAATGCTAGGTGAACTTGAAAAACGGAATGAATTATTGAAGAAAAGAAAGAGCAATCTCGTCATCGAAGACTAAATTTCTGTATGGAAAACAGTTATTTTTCGTGTGCATAAAATAAAGATTTATGTGCATTTAGTTCTAAATCACCTAAATAATGGTTGAACATAAATGTTTTTTTTATGTGCATTCAGC (double strand) [F21] | binds | – | –
9 | TTTTTCGTGGTACCAGATTTATTGCTGAATGCACATAAAAAAAACATTTATGTTCAACCATTATTTAGGTGATTTAGAACTAAATGCACATAAATCTTTATTTTATGCACACGAAAAATAACTGTTTTCCATACAGAAATTTAGTCTTCGATGACGAGATTGCTCTTTCTTTTCTTCAATAATTCATTCCGTTTTTCAAG (double strand) [F22] | binds | binds | –
10 | ATGGTGAAACCGCAGTGCGGTTTGTTTTTTCGTGGTACCAGATTTATTGCTGAATGCACATAAAAAAAACATTTATGTTCAACCATTATTTAGGTGATTTAGAACTAAATGCACATAAATCTTTATTTTATGCACACGAAAAATAACTGTTTTCCATACAGAAATTTAGTCTTCGATGACGAGATTGCTCTTTCTTTTCT (double strand) [F23] | binds | binds | –
11 | GCTCTTTCCTTTTCCACCCCCTCCTTCCTTCGGAATCGGGGGCCGGCTTTTTGCTGCCGCAAAAAGCCTTGGAAAAAGAAACACTTATTTGAACAGATCGTTGCAAAGTAATGTGCAGAAATCGATGAAAAGGAGCGTTAACAAATGCCGGATCTCAACATCAAAGGTCTTTCAAAAGATACAATGAATAGGCTTGCGGA (double strand) [F32] | no binding | – | –
12 | TAAAGATTTATGTGCATTTAGTTCTAAATCACCTAAATAATGGTTGAACATAAATGTTTTTTTTATGTGCATTCAGCAATAAATCTGGTACCACGAAAAAACAAACCGCACTGCGGTTTCACCATGCAAATGGTGCCAGTTTCCCCTTATGCTCTTTCCTTTTCCACCCCCTCCTTCCTTCGGAATCGGGGGCCGGCTTT (double strand) [F26] | binds more weakly | binds | –
13 | CAGTTATTTTTCGTGTGCATAAAATAAAGATTTATGTGCATTTAGTTCTAAATCACCTAAATAATGGTTGAACATAAATGTTTTTTTTATGTGCATTCAGCAATAAATCTGGTACCACGAAAAAACAAACCGCACTGCGGTTTCACCATGCAAATGGTGCCAGTTTCCCCTTATGCTCTTTCCTTTTCCACCCCCTCCTTC (double strand) [F25] | binds | binds | –
14 | Aux1_(LS20) with a C-terminal His(6) tag (natural protein) | – | – | stoichiometry N [5]: 4; stoichiometry N [6]: 4
15 | GCAAATGGTGCCAGTTTCCCCTTATGCTCTTTCCTTTTCCACCCCCTCCTTCCTTCGGAATCGGGGGCCGGCTTTTTGCTGCCGCAAAAAGCCTTGGAAAAAGAAACACTTATTTGAACAGATCGTTGCAAAGTAATGTGCAGAAATCGATGAAAAGGAGCGTTAACAAATGCCGGATCTCAACATCAAAGGTCTTTCAA (double strand) [F31] | no binding | – | –
